Tests used:
[1] = target: PucA-LH2 α-polypeptide (α-apoprotein encoded by the pucBAa gene pair) (Rhodopseudomonas palustris); assay: cryo-EM structure; single-particle cryo-EM of native LH2 complexes purified from intracytoplasmic membranes of single-pucBA deletion strains, in 0.1% LDAO, 20 mM Tris-Cl pH 8.0; C1 maps with relaxed C9 symmetry; γ encloses six of the nine α/β-heterodimers
PucA-LH2 = target: T1, PucA-LH2 (Rhodopseudomonas palustris, UniProt P35101+P35106+Q6N9P5); assay: cryo-EM structure of the complex, […] Å; type: binding; details: 9 per complex, between alpha and beta chains; noncovalent
T1 construct: gene pucAA; native nonameric LH2 complex purified in LDAO from a Rps. palustris mutant with only pucBAa; α9β9γ1; alpha Met1 modelled as Cxm; last nine alpha residues untraced
T1 sequence (P35101 whole entry): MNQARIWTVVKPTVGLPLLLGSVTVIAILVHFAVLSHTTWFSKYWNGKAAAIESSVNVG
T1 sequence (P35106 2-47 limits assumed): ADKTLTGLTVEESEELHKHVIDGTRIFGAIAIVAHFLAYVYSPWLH
T1 sequence (Q6N9P5 1-97): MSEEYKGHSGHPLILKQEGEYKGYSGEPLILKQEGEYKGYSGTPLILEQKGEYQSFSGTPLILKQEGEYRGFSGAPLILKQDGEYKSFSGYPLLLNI

[2] = target: PucB-LH2 α-polypeptide (α-apoprotein encoded by the pucBAb gene pair) (Rhodopseudomonas palustris); assay: cryo-EM structure; single-particle cryo-EM of native LH2 complexes purified from intracytoplasmic membranes of single-pucBA deletion strains, in 0.1% LDAO, 20 mM Tris-Cl pH 8.0; C1 maps with relaxed C9 symmetry; γ encloses six of the nine α/β-heterodimers
[3] = target: PucD-LH2 α-polypeptide (α-apoprotein encoded by the pucBAd gene pair) (Rhodopseudomonas palustris); assay: as above
[4] = target: PucE-LH2 α-polypeptide (α-apoprotein encoded by the pucBAe gene pair) (Rhodopseudomonas palustris); assay: as above

Question: “PucA-LH2 α-polypeptide (α-apoprotein encoded by the pucBAa gene pair) (natural protein)” was tested. Which stoichiometry N [1] did it give?
Answer: 9

Question: How did the “cryo-EM structure of the complex, 2.7 Å” value (PucA-LH2) turn out when `CC(C)=CCC/C(C)=C/C=C/C(C)=C/C=C/C(C)=C/C=C/C=C(C)/C=C/C=C(C)/C=C/C=C(\C)CCCC(C)(C)O` [rhodopin] was run?
Answer: A carotenoid, rhodopin, is sandwiched between α- and β-polypeptides

Question: Which stoichiometry N [2] does the source give for “PucB-LH2 α-polypeptide (α-apoprotein encoded by the pucBAb gene pair) (natural protein)” here?
Answer: 9

Question: How did the stoichiometry N [3] turn out when “PucD-LH2 α-polypeptide (α-apoprotein encoded by the pucBAd gene pair) (natural protein)” was run?
Answer: 9

Question: “PucE-LH2 α-polypeptide (α-apoprotein encoded by the pucBAe gene pair) (natural protein)” was tested. Which stoichiometry N [4] did it give?
Answer: 9
